Measurements as given in patent US5840683A, “Peptides inhibiting the oncogenic action of p21 ras” (Innapharma, Inc., dated 1998).

T1: human oncogenic ras p21 (human)
T1 chain: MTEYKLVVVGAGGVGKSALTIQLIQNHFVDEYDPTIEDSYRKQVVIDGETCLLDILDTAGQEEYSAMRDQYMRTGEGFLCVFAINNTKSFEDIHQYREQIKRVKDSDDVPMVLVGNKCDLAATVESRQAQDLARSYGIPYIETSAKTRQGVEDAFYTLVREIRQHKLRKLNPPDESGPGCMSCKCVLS


Experiments:
oncogenic ras-p-21 = conditions: background statement; cited from earlier work
human oncogenic ras p21 = molecular target: T1, human oncogenic ras p21; test: cell-based or functional assay

Molecule	Present Inhibition of ras-Induced Maturation (human oncogenic ras p21)	inhibition of oncogenic ras-p-21 (oncogenic ras-p-21)
N[C@@H](Cc1ccc(O)cn1)C(=O)O [Azatyrosine]	–	strongly inhibits
GNKCDLAARTVE [peptide of SEQ ID NO:8, Gly-Asn-Lys-Cys-Asp-Leu-Ala-Ala-Arg-Thr-Val-Glu]	92%	–
KRV [Lys-Arg-Val]	22%	–
IKRVKD [peptide of SEQ ID NO:1, Ile-Lys-Arg-Val-Lys-Asp]	76%	–
VVI [Val-Val-Ile]	34%	–

Now from value to molecule, other results behind:

Present Inhibition of ras-Induced Maturation (human oncogenic ras p21)	Molecule	inhibition of oncogenic ras-p-21 (oncogenic ras-p-21)
38%	KCDLA [peptide of SEQ ID NO:2, Lys-Cys-Asp-Leu-Ala]	–
22%	DLAA [peptide of SEQ ID NO:4, Asp-Leu-Ala-Ala]	–
56%	YREQIKRVKDSDDVP [peptide of SEQ ID NO:7, Tyr-Arg-Glu-Gln-Ile-Lys-Arg-Val-Lys-Asp-Ser-Asp-Asp-Val-Pro]	–
65%	CDLAART [peptide of SEQ ID NO:9, Cys-Asp-Leu-Ala-Ala-Arg-Thr]	–
28%	TIEDSYRKQVVID [peptide of SEQ ID NO:6, Thr-Ile-Glu-Asp-Ser-Tyr-Arg-Lys-Gln-Val-Val-Ile-Asp]	–
